Conditions: Bacillus amyloliquefaciens, Thermal, DSC, reversible: yes (~80%), whole UniProt chain shown

B1: Ribonuclease wild type, P00648 (protein)
chain: MMKMEGIALKKRLSWISVCLLVLVSAAGMLFSTAAKTETSSHKAHTEAQVINTFDGVADYLQTYHKLPDNYITKSEAQALGWVASKGNLADVAPGKSIGGDIFSNREGKLPGKSGRTWREADINYTSGFRNSDRILYSSDWLIYKTTDHYQTFTKIR
For B1, the Tm (pH 7, PIPES 50 mM) was 54 °C, the “unfolding enthalpy (calorimetric)” value (pH 7, PIPES 50 mM) was 551 kJ/mol and the Tm (pH 10, CAPS 50 mM) was 48.6 °C. The “unfolding enthalpy (calorimetric)” value (pH 10, CAPS 50 mM) was 510 kJ/mol, the Tm (pH 10.3, CAPS 50 mM) was 48.4 °C and the “unfolding enthalpy (calorimetric)” value (pH 10.3, CAPS 50 mM) was 508 kJ/mol. The Tm (pH 10.5, CAPS 50 mM) was 47.4 °C and the “unfolding enthalpy (calorimetric)” value (pH 10.5, CAPS 50 mM) was 500 kJ/mol.
